Targets include HLA-A*68:01; HLA-A*11:01; HLA-A*33:01; HLA-A*03:01; HLA-A*31:01.
What all share (assay): IEDB peptide-MHC binding, purified MHC/competitive/radioactivity; filed as Kd, often an IC50 or EC50 that approximates it; ≥ and ≤ were set here for values at or beyond the usual limits of such assays
Where [1] appears, read: source organism: SARS coronavirus Tor2.
Where [2] appears, read: source organism: Vaccinia virus WR.
Setting [3] is: source organism: Mammarenavirus juninense.
[4] abbreviates: source organism: Mammarenavirus guanaritoense.
The mark [5] stands for this setting: source organism: Mammarenavirus machupoense.

The text below walks through data of the Immune Epitope Database (IEDB).

The term Kd denotes the equilibrium constant for the complex coming apart.

As to AAISDYDYY, the dissociation constant (Kd) was 4810 nM with HLA-A*68:01 (setting [1]); 1100 nM with HLA-A*11:01 (setting [1]); at least 77700 nM in the test with HLA-A*33:01 (setting [1]); 698 nM in the test with HLA-A*03:01 (setting [1]); 17500 nM with HLA-A*31:01 (setting [1]).

AAVTLNRIK: the dissociation constant Kd was 3160 nM with HLA-A*68:01 (setting [2]); 4760 nM in the test with HLA-A*11:01 (setting [2]); at least 27100 nM in the test with HLA-A*33:01 (setting [2]); at least 34800 nM with HLA-A*03:01 (setting [2]); 9300 nM with HLA-A*31:01 (setting [2]).

As to AFDISVNASK, the dissociation constant (Kd) with HLA-A*68:01 (setting [2]) was 1040 nM; with HLA-A*11:01 (setting [2]), 1230 nM; with HLA-A*33:01 (setting [2]), at least 32300 nM; with HLA-A*03:01 (setting [2]) it was 593 nM; in the test with HLA-A*31:01 (setting [2]), 1660 nM.

Regarding AISKLGINY, the Kd with HLA-A*68:01 (setting [2]) is 1340 nM; in the test with HLA-A*11:01 (setting [2]), 22 nM; with HLA-A*33:01 (setting [2]) it was 8450 nM; in the test with HLA-A*03:01 (setting [2]), 178 nM; in the test with HLA-A*31:01 (setting [2]), 2740 nM.

Turning to ALCTFLLNK, the Kd was 1050 nM with HLA-A*68:01 (setting [1]); 2.74 nM with HLA-A*11:01 (setting [1]); 6670 nM with HLA-A*33:01 (setting [1]); 0.778 nM with HLA-A*03:01 (setting [1]); 352 nM in the test with HLA-A*31:01 (setting [1]).

For the sequence ALEYLSELK, the Kd was 3480 nM with HLA-A*68:01 (setting [2]); 178 nM with HLA-A*11:01 (setting [2]); at least 77700 nM with HLA-A*33:01 (setting [2]); 988 nM with HLA-A*03:01 (setting [2]); 8550 nM with HLA-A*31:01 (setting [2]).

With ALLRALRLTK, the dissociation constant (Kd) in the test with HLA-A*68:01 (setting [1]) was 1790 nM; with HLA-A*11:01 (setting [1]) it was 24.5 nM; with HLA-A*33:01 (setting [1]), at least 70000 nM; with HLA-A*03:01 (setting [1]), 3.17 nM; with HLA-A*31:01 (setting [1]) it was 233 nM.

For the sequence ALNHTKKWK, the Kd in the test with HLA-A*68:01 (setting [1]) was at least 77700 nM; with HLA-A*11:01 (setting [1]) it was 5640 nM; in the test with HLA-A*33:01 (setting [1]), at least 77700 nM; with HLA-A*03:01 (setting [1]), 784 nM; in the test with HLA-A*31:01 (setting [1]) it was 528 nM.

In the case of ANKQYIHCFR, the dissociation constant (Kd) was 9810 nM in the test with HLA-A*68:01 (setting [3]); at least 46600 nM in the test with HLA-A*11:01 (setting [3]); 130 nM with HLA-A*33:01 (setting [3]); 17800 nM with HLA-A*03:01 (setting [3]); 12.8 nM in the test with HLA-A*31:01 (setting [3]).

On to AVFKDSFLR, for which the Kd stood at 0.821 nM with HLA-A*68:01 (setting [2]); 6.49 nM with HLA-A*11:01 (setting [2]); 323 nM with HLA-A*33:01 (setting [2]); 16.2 nM with HLA-A*03:01 (setting [2]); 3.03 nM with HLA-A*31:01 (setting [2]).

As to CCNWLDRCRH, the equilibrium dissociation constant (Kd) is at least 70100 nM with HLA-A*68:01 (setting [4]); at least 69700 nM in the test with HLA-A*11:01 (setting [4]); 15900 nM in the test with HLA-A*33:01 (setting [4]); at least 70000 nM with HLA-A*03:01 (setting [4]); 1350 nM with HLA-A*31:01 (setting [4]).

Turning to CFKEASFSK, the Kd was 1230 nM with HLA-A*68:01 (setting [2]); 1370 nM with HLA-A*11:01 (setting [2]); 11.6 nM with HLA-A*33:01 (setting [2]); 966 nM with HLA-A*03:01 (setting [2]); 13 nM with HLA-A*31:01 (setting [2]).

With CTDPSERVFK, the Kd with HLA-A*68:01 (setting [2]) is 56 nM; with HLA-A*11:01 (setting [2]), 10 nM; with HLA-A*33:01 (setting [2]) it was at least 54500 nM; with HLA-A*03:01 (setting [2]) it was 543 nM; with HLA-A*31:01 (setting [2]) it was 2930 nM.

Take DFESVTNSVY: the Kd with HLA-A*68:01 (setting [2]) is 11800 nM; with HLA-A*11:01 (setting [2]), at least 25400 nM; with HLA-A*33:01 (setting [2]), 14800 nM; with HLA-A*03:01 (setting [2]) it was at least 33300 nM; in the test with HLA-A*31:01 (setting [2]), 15600 nM.

As to DLISYGGGWR, the Kd with HLA-A*33:01 (source organism: Dengue virus 1 Brazil/97-11/1997) came to 1390 nM.

As to DLIVTFRERY, the Kd with HLA-A*68:01 (setting [2]) was determined as 23.5 nM; in the test with HLA-A*11:01 (setting [2]), 52.6 nM; with HLA-A*33:01 (setting [2]), 1240 nM; in the test with HLA-A*03:01 (setting [2]) it was 35.1 nM; in the test with HLA-A*31:01 (setting [2]) it was 137 nM.

In the case of DSPLTLLIK, the dissociation constant (Kd) is 1320 nM in the test with HLA-A*68:01 (setting [2]); 6250 nM in the test with HLA-A*11:01 (setting [2]); at least 77700 nM with HLA-A*33:01 (setting [2]); at least 78000 nM with HLA-A*03:01 (setting [2]); at least 55600 nM in the test with HLA-A*31:01 (setting [2]).

DTSEVHWNYK: the equilibrium dissociation constant (Kd) with HLA-A*68:01 (source organism: Dengue virus 4 Philippines/H241/1956) turned out to be 6.73 nM.

Take DVKVLAARLK: the Kd with HLA-A*68:01 (setting [2]) was 592 nM; with HLA-A*11:01 (setting [2]) it was 2350 nM; with HLA-A*33:01 (setting [2]), 5070 nM; in the test with HLA-A*03:01 (setting [2]), 1160 nM; in the test with HLA-A*31:01 (setting [2]), 3000 nM.

Turning to EISSNDNAK, the Kd with HLA-A*68:01 (setting [2]) was 31 nM; with HLA-A*11:01 (setting [2]), 443 nM; with HLA-A*33:01 (setting [2]), 9600 nM; in the test with HLA-A*03:01 (setting [2]), 16800 nM; with HLA-A*31:01 (setting [2]), at least 55600 nM.

Regarding EIWTKEGER, in the test with HLA-A*33:01 (source organism: Dengue virus 2 Jamaica/1409/1983), the Kd amounted to 47.9 nM.

As for ELNIVDEIIK, the Kd with HLA-A*68:01 (setting [2]) was 2650 nM; with HLA-A*11:01 (setting [2]), 19000 nM; in the test with HLA-A*33:01 (setting [2]), 13900 nM; with HLA-A*03:01 (setting [2]), 11800 nM; with HLA-A*31:01 (setting [2]), at least 70000 nM.

Take ESRDRKWLY: the Kd with HLA-A*68:01 (setting [2]) is 3930 nM; in the test with HLA-A*11:01 (setting [2]) it was 10300 nM; with HLA-A*33:01 (setting [2]) it was 10100 nM; in the test with HLA-A*03:01 (setting [2]), at least 51200 nM; in the test with HLA-A*31:01 (setting [2]), at least 61000 nM.

EWIEFTNFK: the Kd came out at 4.52 nM with HLA-A*68:01 (setting [5]); 3290 nM with HLA-A*11:01 (setting [5]); 66.7 nM in the test with HLA-A*33:01 (setting [5]); 9580 nM with HLA-A*03:01 (setting [5]); 15400 nM with HLA-A*31:01 (setting [5]).
